According to paper PMC3327772:

Molecular target: IAEDANS labeled sarcoplasmic reticulum Ca-ATPase (SERCA) (rabbit (purified from rabbit skeletal muscle)) (UniProt P04191)
Assay: FRET or BRET

- Xb (fraction of SERCA bound to PLB) (mole fraction): 0.82
Substance: Dabcyl labeled monomeric AFA-PLB mutant (C36A/C41F/C46A) of phospholamban (peptide)
